Tests used:
[1] = biological target: T1, human TNFR2 expressed on cells (human, UniProt P20333 23-461); assay: cell-based or functional assay
T1 sequence (looked up): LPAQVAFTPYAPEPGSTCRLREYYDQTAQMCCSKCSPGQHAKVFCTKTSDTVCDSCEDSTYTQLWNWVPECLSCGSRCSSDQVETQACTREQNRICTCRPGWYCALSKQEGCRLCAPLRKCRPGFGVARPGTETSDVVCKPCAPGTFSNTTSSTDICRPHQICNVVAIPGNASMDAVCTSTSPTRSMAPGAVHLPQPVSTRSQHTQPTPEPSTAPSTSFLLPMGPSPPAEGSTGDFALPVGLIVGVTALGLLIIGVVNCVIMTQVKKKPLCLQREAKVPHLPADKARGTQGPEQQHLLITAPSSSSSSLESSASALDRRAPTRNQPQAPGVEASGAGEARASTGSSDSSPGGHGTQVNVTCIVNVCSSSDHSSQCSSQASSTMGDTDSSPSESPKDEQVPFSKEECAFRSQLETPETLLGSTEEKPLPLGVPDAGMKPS

[2] = biological target: T2, cynomolgus TNFR2-His tagged protein (cynomolgus, UniProt A0A2K5VET2 132-366); assay: ELISA, cynomolgus TNFR2
T2 construct: also called Cyno TNFR2; cynomolgus TNFR2 protein; not shown: His tag
T2 sequence: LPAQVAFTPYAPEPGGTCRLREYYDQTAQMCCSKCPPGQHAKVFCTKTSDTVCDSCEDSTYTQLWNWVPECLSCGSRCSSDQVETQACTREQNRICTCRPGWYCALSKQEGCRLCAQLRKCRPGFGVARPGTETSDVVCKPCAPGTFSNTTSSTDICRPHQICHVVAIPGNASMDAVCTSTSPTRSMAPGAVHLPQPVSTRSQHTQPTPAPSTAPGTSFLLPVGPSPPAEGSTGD

[3] = biological target: T3, human TNFR2-His tagged protein (soluble) (human, UniProt P20333 23-257); assay: ELISA, soluble human TNFR2
T3 construct: also called hTNFR2 (soluble); soluble TNFR2-His; not shown: His tag
T3 sequence (looked up): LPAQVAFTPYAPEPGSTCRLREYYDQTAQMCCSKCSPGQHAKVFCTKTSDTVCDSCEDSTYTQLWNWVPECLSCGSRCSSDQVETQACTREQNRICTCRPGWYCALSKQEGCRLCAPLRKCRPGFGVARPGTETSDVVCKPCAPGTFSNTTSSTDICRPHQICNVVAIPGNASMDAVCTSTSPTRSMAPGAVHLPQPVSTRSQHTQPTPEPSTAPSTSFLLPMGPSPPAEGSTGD

[4] = biological target: T4, TNFR2 (as used in the Octet measurement) (UniProt P20333 23-257, limits assumed); assay: Octet (BLI), monovalent binding
T4 construct: Probably human soluble TNFR2; the legend says only TNFR2
T4 sequence (looked up): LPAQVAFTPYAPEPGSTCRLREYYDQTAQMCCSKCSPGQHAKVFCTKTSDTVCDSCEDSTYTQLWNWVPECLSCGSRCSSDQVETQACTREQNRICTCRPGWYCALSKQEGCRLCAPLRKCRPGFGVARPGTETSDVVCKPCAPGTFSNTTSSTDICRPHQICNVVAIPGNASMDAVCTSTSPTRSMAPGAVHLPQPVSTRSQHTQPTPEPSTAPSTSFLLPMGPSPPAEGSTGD

[5] = biological target: T5, TNFR-Fc (UniProt P20333 23-257, limits assumed); assay: TNF-α blocking ELISA (soluble)
T5 construct: Printed only as TNFR-Fc; not shown: Fc part
T5 sequence (looked up): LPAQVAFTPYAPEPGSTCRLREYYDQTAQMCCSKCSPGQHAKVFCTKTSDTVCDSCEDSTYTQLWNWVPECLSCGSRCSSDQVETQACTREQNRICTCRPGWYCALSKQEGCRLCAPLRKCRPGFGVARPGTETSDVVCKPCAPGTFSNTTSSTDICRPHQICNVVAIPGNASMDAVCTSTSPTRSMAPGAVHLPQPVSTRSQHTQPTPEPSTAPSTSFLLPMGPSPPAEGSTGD

[6] = biological target: T6, death receptor 6 (DR6) (UniProt O75509 42-349, limits assumed); assay: ELISA on coated DR6, OD 650 nm
T6 sequence (looked up): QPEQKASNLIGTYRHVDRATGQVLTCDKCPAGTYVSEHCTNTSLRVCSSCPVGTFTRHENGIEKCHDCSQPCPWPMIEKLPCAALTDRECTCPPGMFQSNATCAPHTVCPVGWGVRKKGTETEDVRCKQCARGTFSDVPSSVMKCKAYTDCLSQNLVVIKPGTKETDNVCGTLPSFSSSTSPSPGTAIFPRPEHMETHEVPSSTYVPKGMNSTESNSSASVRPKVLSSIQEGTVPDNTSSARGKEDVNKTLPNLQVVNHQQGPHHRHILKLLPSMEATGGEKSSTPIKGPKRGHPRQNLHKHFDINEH
Method: (§1) To test binding to TNFR family members, target proteins were coated on ELISA plates at 1 μg/mL at 4° C. overnight. Plates were washed, blocked, and antibodies were added at indicated concentrations for 1 hour at RT. Positive control antibodies for each protein were used at ˜1 ug/mL. Antibodies were washed and detected with anti-human IgG HRP for 1 hour. Assay was developed using TMB substrate for 10 minutes. For cell-binding, human CD4+ T cells purified from buffy coats were cultured in flat-bottom plates with anti-CD3/CD28 for 24 hours. Cells were harvested and stained for viability, CD4, CD25 and FOXP3. Test antibody staining was detected using anti-human IgG APC. Binding titration of test antibodies was evaluated on CD4+CD25hiFOXP3+ regulatory T cells and plotted as percent binding.

[7] = biological target: T7, osteoprotegerin (OPG) (UniProt O00300 22-401, limits assumed); assay: ELISA on coated OPG, OD 650 nm
T7 sequence (looked up): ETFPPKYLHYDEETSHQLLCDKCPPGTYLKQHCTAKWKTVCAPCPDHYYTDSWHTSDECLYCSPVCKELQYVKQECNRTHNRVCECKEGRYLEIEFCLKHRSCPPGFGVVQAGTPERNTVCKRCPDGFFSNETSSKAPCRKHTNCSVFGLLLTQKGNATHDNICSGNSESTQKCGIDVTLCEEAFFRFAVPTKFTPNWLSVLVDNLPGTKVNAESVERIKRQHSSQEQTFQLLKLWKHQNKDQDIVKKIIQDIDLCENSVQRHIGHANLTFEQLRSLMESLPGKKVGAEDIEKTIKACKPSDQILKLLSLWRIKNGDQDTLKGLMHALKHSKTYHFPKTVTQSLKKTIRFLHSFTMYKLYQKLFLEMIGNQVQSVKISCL
Method: as §1

[8] = biological target: T8, herpesvirus entry mediator (HVEM) (UniProt Q92956 39-202, limits assumed); assay: ELISA on coated HVEM, OD 650 nm
T8 sequence (looked up): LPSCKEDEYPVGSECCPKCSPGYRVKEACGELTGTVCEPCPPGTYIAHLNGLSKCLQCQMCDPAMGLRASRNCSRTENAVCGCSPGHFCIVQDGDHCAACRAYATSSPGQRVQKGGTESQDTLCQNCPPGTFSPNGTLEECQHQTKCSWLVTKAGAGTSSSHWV
Method: as §1

[9] = biological target: CD40 (UniProt P25942 21-193, limits assumed); assay: ELISA on coated CD40, OD 650 nm
Method: as §1

[10] = biological target: T9, human TNFR1-His tagged protein (human, UniProt P19438 30-211, limits assumed); assay: ELISA on coated TNFR1, OD 450 nm
T9 construct: also called soluble human TNFR1; not shown: His tag
T9 sequence (looked up): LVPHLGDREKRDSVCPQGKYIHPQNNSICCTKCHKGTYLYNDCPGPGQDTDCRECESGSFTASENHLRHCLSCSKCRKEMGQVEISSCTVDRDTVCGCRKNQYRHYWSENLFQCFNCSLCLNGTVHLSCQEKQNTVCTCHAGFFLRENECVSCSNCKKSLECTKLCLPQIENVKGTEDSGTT
Method: as §1

[11] = biological target: T1, human TNFR2 expressed on cells; assay: flow cytometry, cell-expressed human TNFR2
[12] = biological target: T3, human TNFR2-His tagged protein (soluble); assay: ELISA on coated hTNFR2-His, OD 450 nm
[13] = biological target: T1, human TNFR2 expressed on cells; assay: cell binding on TNFR2-overexpressing (OE) cells
[14] = biological target: T1, human TNFR2 expressed on cells; assay: blocking of biotinylated TNF-α on TNFR2-CHO cells, flow cytometry
Method: TNFR2-overexpressing CHO cells were plated at 100,000 cells per well. Cells were incubated with the indicated antibodies for 30 minutes on ice. […] Cells were analyzed using Cytoflex or MACSQuant flow cytometer. Assay was repeated twice.

[15] = biological target: T1, human TNFR2 expressed on cells; assay: flow cytometry on cells expressing human TNFR2, MFI median
[16] = biological target: T1, human TNFR2 expressed on cells; assay: Primary Cell Affinity; binding titration on activated human Tregs, flow cytometry
Method: as §1

Sequence of CD40 (P25942 21-193 limits assumed): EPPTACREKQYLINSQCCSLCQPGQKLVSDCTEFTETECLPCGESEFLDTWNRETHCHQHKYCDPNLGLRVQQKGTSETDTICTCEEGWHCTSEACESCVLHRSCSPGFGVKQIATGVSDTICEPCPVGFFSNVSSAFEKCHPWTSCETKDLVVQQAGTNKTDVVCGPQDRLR

- ADCC EC50 (reporter line) [1]: 1.14 nM
- ADCP EC50 [1]: 0.92 nM
- EC50 [2]: 0.046 nM
- EC50 [3]: 0.105 nM
- koff [4]: 0.000233 s⁻¹
- kon [4]: 376000 M⁻¹ s⁻¹
- IC50 [5]: 1.33 nM
- binding result [7]: no binding (tested: about 67 nM)
- binding result [8]: no binding (tested: about 67 nM)
- binding result [9]: no binding (tested: about 67 nM)
- binding result [10]: no binding (tested: about 67 nM)
- EC50 [11]: 0.31 nM
- EC50 (read off the curve) [12]: ~0.1 nM
- Kd [13]: 0.0994 nM
- IC50 [14]: 0.198 nM
- EC50 (read off the curve) [15]: ~0.3 nM
- Kd [16]: 0.05 nM
B1: humanized antibody h600-25-108 (antibody, V domains shown)
VH: EVQLVESGGGLVQPGGSLRLSCAASGFSLSDYFMTWVRQAPGKGLEWVGIINTGGDSYYATWAKGRFTISRDNSKNTLYLQMNSLRAEDTAVYYCARDTGYGGYDYAGSFDPWGQGTLVTVSS
VL: DIQMTQSPSSVSASVGDRVTITCQASENINSWLAWYQQKPGKAPKLLIYEASKLASGVPSRFSGSGSGTDFTLTISSLQPEDFATYYCQQGYIYIDVGNIFGGGTKVEIK
- binding result [6]: no binding (tested: about 67 nM)

Reference: US20220372154A1 (APEXIGEN, published 2022)
